From patent US20220010017A1 (Bayer, published 2022)

Biological target: T1, human CEACAM6 (human, UniProt P40199 35-320)
T1 sequence (looked up): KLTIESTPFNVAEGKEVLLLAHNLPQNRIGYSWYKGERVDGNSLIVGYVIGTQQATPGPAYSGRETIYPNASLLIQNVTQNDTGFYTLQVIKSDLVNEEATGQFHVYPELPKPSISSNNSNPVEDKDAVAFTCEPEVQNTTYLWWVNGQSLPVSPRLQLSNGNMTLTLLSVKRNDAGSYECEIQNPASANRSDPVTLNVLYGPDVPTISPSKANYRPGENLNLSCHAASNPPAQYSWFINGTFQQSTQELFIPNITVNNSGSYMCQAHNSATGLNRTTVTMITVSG
Experiment: cell-based or functional assay

B1: TPP-3310 (antibody, human IgG2, kappa, V domains shown)
VH: QVTLRESGPALVKPTQTLTLTCTFSGFSLSTYGIGVGWIRQPPGKALEWLAHIWWNDNKYYSTSLKTRLTISKDTSKNQVVLTMTNMDPVDTATYYCARISLPYFDYWGQGTTLTVSS
VL: DIQLTQSPSFLSASVGDRVTITCKASQNVGTAVAWYQQKPGKAPKLLIYSASNRYTGVPSRFSGSGSGTEFTLTISSLQPEDFATYYCQQYSSYPLTFGGGTKVEIKR
In the case of B1, the “half-maximal effective concentration (EC50) on the activation of T cells in co-culture” value is reported as ~1 µg/mL.
